This passage reports Cross-Reactivity results from US9013690.

The target in this assay is Beta Amyloid 1-40 (human) (UniProt P05067). The assay is described as follows: fluorescence sandwich immunoassay on D2PA plate, 6E10 capture and anti-Aβ42 detection, Aβ40 as analyte.

“anti-Aβ42 (biotinylated detection antibody of the Covance Aβ-42 ELISA kit)” returned a Cross-Reactivity of 0.06%.
